Patent publication US20240245793A1, “PSD-95 INHIBITORS AND USES THEREOF” (priority 2021, published 2024)

B1: compound 19, NPEG4-(ISTDV)2 fused to L-TAT (Ac-[…]-) (peptide)
peptide: ISTDV
chain: […]
modifications: not checked
B2: compound 15, NPEG4-(KETVV)2 fused to L-TAT (Ac-[…]-) (peptide)
peptide: KETVV
chain: […]
modifications: not checked
B3: compound 13, NPEG4-(KETTV)2 fused to L-TAT (Ac-[…]-) (peptide)
peptide: KETTV
chain: […]
modifications: not checked
B4: compound 11, NPEG4-(KETLV)2 fused to L-TAT (Ac-[…]-) (peptide)
peptide: KETLV
chain: […]
modifications: not checked
B5: compound 17, NPEG4-(KETRV)2 fused to L-TAT (Ac-[…]-) (peptide)
peptide: KETRV
chain: […]
modifications: not checked
B6: compound 21, NPEG4-(VETVV)2 fused to L-TAT (Ac-[…]-) (peptide)
peptide: VETVV
chain: […]
modifications: not checked

molecular target: PDZ1-2 of PSD-95 (postsynaptic density protein-95), P78352; experiment: FP competition against fluorescent dimeric probe, Ki from IC50
Sequence (P78352 61-249 limits assumed): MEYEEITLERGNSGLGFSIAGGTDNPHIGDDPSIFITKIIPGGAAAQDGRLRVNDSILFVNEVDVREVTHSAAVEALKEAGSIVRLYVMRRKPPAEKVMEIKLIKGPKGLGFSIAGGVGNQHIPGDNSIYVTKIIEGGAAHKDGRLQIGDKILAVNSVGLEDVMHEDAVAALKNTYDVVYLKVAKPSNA

| Binder | Ki [nM] |
| --- | --- |
| B1 | 36.1 |
| B2 | 2.1 |
| B3 | 6.5 |
| B4 | 5.4 |
| B5 | 6.6 |
| B6 | 15.8 |
